One test has as its target T1, human MC4 receptor (human, UniProt P32245 1-332).
T1 construct: whole, on cells; Assayed as membranes of BHK cells stably expressing the receptor; also called melanocortin receptor subtype 4; melanocortin receptor 4
The test can be described thus: 125I-NDP-α-MSH displacement, BHK-human MC4 membranes (Assay V).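 Also: Filter-retained radioactivity read by gamma counting, with affinity obtained through non-linear regression fitting of the binding curves.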

In another test the target is T2, MC1 receptor (UniProt Q01726 1-317, limits assumed).
T2 construct: whole, on cells; also called melanocortin receptor subtype 1; melanocortin receptor 1
The test can be described thus: 125I-NDP-α-MSH displacement, BHK-MC1 membranes (Assay IV).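 Also: membrane incubations stopped by filtration, retained radioactivity counted, Ki fitted by nonlinear regression to binding curves.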

Positions of bridges follow the written chain, without caps; N, C: chain ends. Non-standard residues stand in square brackets, D forms with d. Groups on a side chain read outwards from the residue. Primed or numbered codes have the meaning given here. *: point of attachment. X5 = NH(2-(2-(2-(17-carboxyheptadecanoylamino)ethoxy)ethoxy)ethyl), O=C(O)CCCCCCCCCCCCCCCCC(=O)NCCOCCOCCN*; X6 = (2-(2-(17-carboxyheptadecanoylamino)ethoxy)ethoxy)acetyl, O=C(O)CCCCCCCCCCCCCCCCC(=O)NCCOCCOCC(=O)*; X3 = (2-(2-(15-carboxypentadecanoylamino)ethoxy)ethoxy)acetyl, O=C(O)CCCCCCCCCCCCCCC(=O)NCCOCCOCC(=O)*; biscarboxymethyl = Lys(biscarboxymethyl) = Nepsilon-bis(carboxymethyl)-L-lysine; Palmitoyl(16-(5-tetrazolyl)) = O=C(CCCCCCCCCCCCCCCc1nnn[nH]1)*; biscarboxymethyl(3) = Nepsilon-bis(carboxymethyl) on Lys; Orn = NCCC[C@H](N)C(=O)O; Dab = NCC[C@H](N)C(=O)O; AEEA = NCCOCCOCC(=O)O

T2 sequence (Q01726 whole entry): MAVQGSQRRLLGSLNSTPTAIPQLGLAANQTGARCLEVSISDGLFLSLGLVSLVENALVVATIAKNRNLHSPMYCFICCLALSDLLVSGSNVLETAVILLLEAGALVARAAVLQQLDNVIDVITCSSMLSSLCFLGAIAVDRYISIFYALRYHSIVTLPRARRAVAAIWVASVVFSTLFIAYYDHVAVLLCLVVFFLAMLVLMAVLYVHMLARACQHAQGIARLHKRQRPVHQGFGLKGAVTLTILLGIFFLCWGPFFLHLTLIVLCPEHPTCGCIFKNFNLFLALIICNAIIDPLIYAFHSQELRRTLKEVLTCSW
T1 sequence (P32245 whole entry): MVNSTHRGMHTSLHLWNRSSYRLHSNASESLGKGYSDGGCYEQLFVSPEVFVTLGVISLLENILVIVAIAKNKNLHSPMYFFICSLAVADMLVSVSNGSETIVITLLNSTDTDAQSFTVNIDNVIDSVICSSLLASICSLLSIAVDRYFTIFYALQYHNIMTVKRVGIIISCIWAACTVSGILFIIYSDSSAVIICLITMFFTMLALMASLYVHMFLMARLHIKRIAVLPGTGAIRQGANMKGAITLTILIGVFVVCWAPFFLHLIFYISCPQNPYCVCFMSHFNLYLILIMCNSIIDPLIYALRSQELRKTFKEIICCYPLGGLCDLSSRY
Experimental for MC1 receptor: The MC1 receptor binding assay was performed on BHK cell membranes stably expressing the MC1 receptor. […] Test compounds were dissolved in DMSO. […] Alternatively, HSA may be substituted with ovalbumin. The samples were incubated at 30° C. for 90 min. in Costar round-bottom microtiter plates. Incubation was terminated by filtration on a Packard harvester filtermate. […] The filters were washed with ice-cold 0.9% NaCl 8-10 times. […] The plates were counted in a Topcounter (1 min/well).
(§1) The data were analysed by non-linear regression analysis of binding curves, using the Windows™ program GraphPad™ Prism (GraphPad Software, USA).
Experimental for human MC4 receptor: The membranes were prepared from frozen or fresh cells that were homogenized in 20 mM HEPES pH 7.1, 5 mM MgCl₂ and 1 mg/ml bacitracin and centrifuged at 15000 rpm at 4° C., 10 min in a Sorvall RC 5B plus, SS-34 rotor. The supernatant was discarded, and the pellets were re-suspended in buffer, homogenized and centrifuged two more times. The final pellets were resuspended in the buffer mentioned above, and the protein concentration was measured and adjusted with buffer to 14 to 17 mg/ml and the membrane preparation were kept at −80° C. until assay. The assay was run directly on a dilution of this cell membrane suspension, without any further preparation. The BHK cell membranes are kept at −80° C. until assay, and the assay is run directly on a dilution of this cell membrane suspension, without further preparation. The suspension is diluted to give maximally 10% specific binding, i.e. to approx. 50-100 fold dilution. […] Test compounds were dissolved in DMSO and diluted in binding buffer. Radiolabelled ligand and membranes were diluted in binding buffer. The incubation was stopped by dilution with 2×100 μl ice-cold 0.9% NaCl. The radioactivity retained on the filters was counted using a Cobra II auto gamma counter.
as §1

With Ac-[Orn]H[dF]RWDPPREK(biscarboxymethyl)K(X3)-NH2 (lactam 1-6), the values for the Ki in the test with human MC4 receptor and with MC1 receptor were 2.2 nM and 2140 nM, respectively.
In the case of Ac-[Orn]H[dF]RWDPPREK(biscarboxymethyl)K(X6)-NH2 (lactam 1-6), the Ki in the test with human MC4 receptor amounted to 0.8 nM; in the test with MC1 receptor it was 1940 nM.
As for Ac-[Dab]H[dF]RWDPSSSK(biscarboxymethyl(3))SS-X5 (lactam 1-6), the Ki in the test with human MC4 receptor stood at 10.8 nM; with MC1 receptor, 9130 nM.
With Ac-EH[dF]RW[Orn]PPRDK(biscarboxymethyl)K(X6)-NH2 (lactam 1-6), the figures for the Ki in the test with human MC4 receptor and with MC1 receptor were 0.9 nM and 4690 nM, respectively.
In the same order, the values of Ac-EH[dF]RW[Orn][dP][dP]RDK(biscarboxymethyl(3))K([AEEA-Palmitoyl(16-(5-tetrazolyl))])-NH2 (lactam 1-6) are 4.6 nM and 8840 nM.

A word on the Ki: it is the dissociation constant of the complex between target and ligand, obtained from inhibition or displacement.

For the origin of these results see patent US20130012432A1 (Novo Nordisk, published 2013).
